Laboratory results published in publication PMC4417627 (Biochemistry, 2013).
Numbering of substitutions follows the chain as printed. Where two headings read alike, the source gives them in different places.

B1: 5xAla NEMO, recombinant full-length, C-terminal 6xHis (natural protein, human, UniProt Q9Y6K9 1-419, looked up)
chain: MNRHLWKSQLAEMVQPSGGPAADQDVLGEESPLGKPAMLHLPSEQGAPETLQRCLEENQELRDAIRQSNQILRERAEELLHFQASQREEKEFLMAKFQEARKLVERLGLEKLDLKRQKEQALREVEHLKRAQQQMAEDKASVKAQVTSLLGELQESQSRLEAATKEAQALEGRARAASEQARQLESEREALQQQHSVQVDQLRMQGQSVEAALRMERQAASEEKRKLAQLQVAYHQLFQEYDNHIKSSVVGSERKRGMQLEDLKQQLQQAEEALVAKQEVIDKLKEEAEQHKIVMETVPVLKAQADIYKADFQAERQAREKLAEKKELLQEQLEQLQREYSKLKASCQESARIEDMRKRHVEVSQAPLPPAPAYLSSPLALPSQRRSPPEEPPDFCCPKCQYQAPDMDTLQIHVMECIE
B2: 6xAla NEMO containing Cys54 (Cys54 added back into the 7xAla construct) (natural protein, human, UniProt Q9Y6K9 1-419, looked up)
chain: B1 chain with C347A
B3: 6xAla NEMO containing Cys76 (Cys76 added back into the 7xAla construct) (natural protein, human, UniProt Q9Y6K9 1-419, looked up)
chain: B1 chain with C54A, A76C, C347A
B4: 6xAla NEMO containing Cys11 (Cys11 added back into the 7xAla construct) (natural protein, human, UniProt Q9Y6K9 1-419, looked up)
chain: B1 chain with A11C, C54A, C347A
B5: 5xAla NEMO, full-length, expressed in NEMO-deficient mouse fibroblasts (natural protein, human, UniProt Q9Y6K9 1-419, looked up)
chain: B1 chain
B6: 6xAla NEMO containing Cys347 (Cys347 added back into the 7xAla construct) (natural protein, human, UniProt Q9Y6K9 1-419, looked up)
chain: B1 chain with C54A
B7: 7xAla NEMO, recombinant full-length, C-terminal 6xHis (natural protein, human, UniProt Q9Y6K9 1-419, looked up)
chain: B1 chain with C54A, C347A

Tests used:
[1] = biological target: IKKβ 680-756 (Homo sapiens) (UniProt O14920); test: ITC; conditions: cited from earlier work
[2] = biological target: IKKβ 680-756 (Homo sapiens) (UniProt O14920); test: SPR; conditions: cited from earlier work
[3] = biological target: IKKβ 701-745 (Homo sapiens) (UniProt O14920); test: SPR; conditions: cited from earlier work
[4] = biological target: the molecule itself; test: cross-linking
[5] = biological target: the molecule itself; test: cross-linking; remark: listed apart in the source
[6] = biological target: the molecule itself; test: fluorescence polarisation

Chain of IKKβ 680-756 (Homo sapiens) (O14920 680-756): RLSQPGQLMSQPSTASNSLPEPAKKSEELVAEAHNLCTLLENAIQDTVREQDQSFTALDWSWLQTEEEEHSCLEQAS
Chain of IKKβ 701-745 (Homo sapiens) (O14920 701-745): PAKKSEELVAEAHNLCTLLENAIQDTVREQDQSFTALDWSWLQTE

Molecule | stoichiometry N [4] | also measured
NEMO 38-196 (from UniProt Q9Y6K9) |  | Kd [1]: 1000 nM; Kd [2]: 3.4 nM
NEMO 2-200 (from UniProt Q9Y6K9) |  | Kd [3]: 76 nM
B1 | 2 | 
B2 | 2 | 
B3 | 2 | 
B4 | 2 | 
B5 |  | stoichiometry N [5]: 2
B6 | 2 | 
B7 | 2 | Kd [6]: < 5 nM
